T1: cynomolgus monkey Pcsk9 with C-terminal his6 tag (cynomolgus monkey)
T1 chain: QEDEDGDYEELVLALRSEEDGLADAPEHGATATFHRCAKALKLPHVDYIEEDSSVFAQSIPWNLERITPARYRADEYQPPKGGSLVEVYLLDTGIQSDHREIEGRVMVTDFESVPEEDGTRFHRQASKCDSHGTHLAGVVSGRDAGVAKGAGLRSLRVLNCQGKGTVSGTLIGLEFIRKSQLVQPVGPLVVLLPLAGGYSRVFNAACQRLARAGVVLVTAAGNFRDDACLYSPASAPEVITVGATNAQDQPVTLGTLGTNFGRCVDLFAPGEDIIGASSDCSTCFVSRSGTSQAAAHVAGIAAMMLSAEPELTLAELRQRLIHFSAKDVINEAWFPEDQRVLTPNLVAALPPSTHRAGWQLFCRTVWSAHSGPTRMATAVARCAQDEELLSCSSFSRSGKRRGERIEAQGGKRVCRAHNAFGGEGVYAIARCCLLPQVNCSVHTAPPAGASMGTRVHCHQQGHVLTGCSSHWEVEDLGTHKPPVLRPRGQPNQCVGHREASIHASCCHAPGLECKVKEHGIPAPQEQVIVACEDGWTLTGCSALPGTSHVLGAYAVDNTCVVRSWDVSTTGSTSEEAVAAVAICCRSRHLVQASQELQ

B1: NVP-LFU720 (antibody, V domains shown)
VH: EVQLQQSGAELMKPGASVKLSCTASGFNIKDMYMSWVRQRPEQGLEWIGRIDPANGHTNYDPKFQAKATITTDTSSKTAYLHLSSLTSEDTAVYYCARSYYYYAMDYWGQGTSVTVSS
VL: QIVLTQSPAIMSASPGEKVTMTCSASSSVSYMHWYQQKPGSSPRLWIYLTFNLASGVPARFSGSGSGTSYSLSISSMEAEDAATYYCLQWSSDPPTFGSGTKLEIK
notes: Murine anti-human Pcsk9 IgG1-kappa monoclonal antibody from a hybridoma; also called 5P20; NVP-LFU720-AX-1
B2: NVP-LGT211 (antibody, human IgG1, V domains shown)
VH: QVQLVQSGAEVKKPGASVKVSCKASGYTFSTMYMSWVRQAPGQGLEWMGRIDPANEHTNYAQKFQGRVTMTRDTSISTAYMELSRLTSDDTAVYYCARSYYYYAMDYWGQGTLVTVSS
VL: QIVLTQSPATLSVSPGERATLSCRASQSVSYMHWYQQKPGQAPRLLIYGVFRRATGIPDRFSGSGSGTDFTLTIGRLEPEDFAVYYCLQWSSDPPTFGQGTKLEIKR
notes: Silent human IgG1 kappa; also called pSR74 (Vh) + pJG10 (Vk); pSR074 + pJG10

Legend:
[1] = biological target: T2, recombinant human Pcsk9 (aa 31-692) with C-terminal his6 tag (human, UniProt Q8NBP7 31-692); assay: SPR (Biacore S51), antibody captured by anti-mouse Fcγ, Pcsk9 in flow
T2 construct: In the TR-FRET assay it carried a fluorophore (hPcsk9-AF); also called hPCSK9; hPcsk9
Description: Binding studies of Pcsk9 to the LFU720 (2 μg/mL) were carried out by capturing the mouse antibody with a rabbit anti-mouse Fcγ antibody (Biacore #BR-1005-14) that was previously immobilized onto a Series S CM-5 Biacore sensor chip (certified) (Biacore #BR-1005-30). Covalent binding of the Fcγ capture antibody was done with the ‘Amine Coupling Kit’ (Biacore #BR-1000-50). The capture antibody (rabbit-anti-mouse) was attached to the EDCactivated dextran surface with a 50 μg/mL anti-Fcγ antibody solution in 10 mM sodium acetate, pH 5 (Biacore #BR-1003-51) at a flow rate of 10 μL/min. A range of concentrations of Pcsk9 from 0.5 μM to 7.8 nM (2 fold serial dilution) were flowed over the captured LFU720 chip in PBS plus 100 mM NaCl, 0.005% P20 (Biacore #BR-1000-54). The resulting sensorgrams were analyzed using the Biacore S51 Evaluation Software. Data from all concentrations was fitted globally to a 1:1 Langmuir model.
Target sequence in this assay (Q8NBP7 other isoform, or with tags, fused parts or gaps limits assumed, form in doubt): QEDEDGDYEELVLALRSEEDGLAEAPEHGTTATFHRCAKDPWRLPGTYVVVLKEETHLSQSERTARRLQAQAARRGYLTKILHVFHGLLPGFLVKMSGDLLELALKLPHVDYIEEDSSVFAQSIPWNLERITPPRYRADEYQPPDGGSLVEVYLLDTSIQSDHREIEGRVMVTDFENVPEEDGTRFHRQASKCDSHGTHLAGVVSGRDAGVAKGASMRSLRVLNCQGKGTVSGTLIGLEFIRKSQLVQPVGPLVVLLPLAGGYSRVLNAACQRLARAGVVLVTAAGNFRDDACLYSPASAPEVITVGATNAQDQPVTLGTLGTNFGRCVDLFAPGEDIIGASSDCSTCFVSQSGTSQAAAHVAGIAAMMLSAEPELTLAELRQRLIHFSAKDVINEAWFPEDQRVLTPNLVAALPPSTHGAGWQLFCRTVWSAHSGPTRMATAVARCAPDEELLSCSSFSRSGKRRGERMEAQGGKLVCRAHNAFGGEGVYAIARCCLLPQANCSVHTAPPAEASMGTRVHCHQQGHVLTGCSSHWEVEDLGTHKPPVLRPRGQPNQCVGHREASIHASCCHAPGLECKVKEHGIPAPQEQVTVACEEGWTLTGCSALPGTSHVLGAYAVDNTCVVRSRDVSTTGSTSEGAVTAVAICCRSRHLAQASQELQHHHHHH

[2] = biological target: T2, recombinant human Pcsk9 (aa 31-692) …; assay: Solution Equilibrium Titration (SET), MSD read-out
Description: The binding kinetics of IgGs and Fab fragments were analyzed using a Solution Equilibrium Titration (“SET”) assay. Briefly, serial dilutions of hPCSK9 were added to 60 pM IgG or Fab and incubated overnight. A 96-well Standard Bind microtiter plate (Meso Scale Discovery) was coated with 1 μg/ml hPCSK9 and incubated overnight, washed with PBS/0.05% (w/v) Tween 20, blocked with PBS/5% (w/v) BSA, and washed again. The antibody-antigen preparation was added to the PCSK9-coated Standard Bind plate and incubated for 30 min at room temperature. After three additional washing steps, Sulfo-Tag-labeled goat-anti-human-detection antibody (R32AJ-5, Meso Scale Discovery) was added and incubated one hour at room temperature. After washing the plate three times, Read Buffer (Meso Scale Discovery) was added and electrochemiluminescence (ECL) signals were measured by a Sector Imager 6000 (Meso Scale Discovery). ECL data were processed with the excel add-in XLfit 4.3.2 (ID Business Solutions) using the fitting model applicable for antibodies described in Piehler, et al., (1997) J Immunol Methods 201:189-206.

[3] = biological target: T1, cynomolgus monkey Pcsk9 with C-terminal …; assay: ELISA on cyno Pcsk9his, antibody 0.03 to 30 ng/ml, Abs 650nm

Row | Binder | Kd [1] [pM] | Kd [2] [pM] | EC50 (read off the curve) [3] [ng/mL]
1 | B1 | 200 | – | –
2 | B2 | – | 190 | ~2

— patent publication US20110142849A1 (IRM, published 2011)
